Reference: article PMC9730451

Molecular target: MGAT1 (GnT1) (UniProt P26572)
Test: co-immunoprecipitation, western blot
Settings: reference: wild type, mitotic; sites S12

With “MAN1A1 (Golgi α-1,2-mannosidase IA) (from UniProt P33908) S12A, mitotic” the “binding against the reference” value was “stronger”.
